doi:10.1101/808618 (bioRxiv, 2020)
Where a chain is given by its changes, count along the chain named. Names and notes keep the numbering of the source.

B1: Plasmodium falciparum GMP synthetase wildtype (enzyme)
chain: MEGEEYDKILVLNFGSQYFHLIVKRLNNIKIFSETKDYGVELKDIKDMNIKGVILSGGPYSVTEAGSPHLKKEVFEYFLEKKIPIFGICYGMQEIAVQMNGEVKKSKTSEYGCTDVNILRNDNINNITYCRNFGDSSSAMDLYSNYKLMNETCCLFENIKSDITTVWMNHNDEVTKIPENFYLVSSSENCLICSIYNKEYNIYGVQYHPEVYESLDGELMFYNFAYNICKCKKQFDPIRYHELELKNIEKYKHDHYVIAAMSGGIDSTVAAAYTHKIFKERFFGIFIDNGLLRKNEAENVYTFLKSTFPDMNITKIDASENFLSNLQGVTDPEQKRKIIGKLFIEEFEKAVNNIDIDINKTFLLQGTLYPDIIESKCSKNLSDTIKTHHNVGGLPKNLKFKLFEPFKYLFKDDVKTLSRELNLPEEITNRHPFPGPGLAIRVIGEINKHKLNILREVDDIFINDLKQYGLYNQISQAFAVLLSSKSVGVRGDARSYDYVCVLRAVKTSSFMTANWYQIPYDILDKITTRILSEVKGVNRILYDVSSKPPATIEFE
B2: PfGMPS H389A (enzyme, Plasmodium falciparum)
chain: B1 chain with H389A
B3: PfGMPS_K415L (enzyme, Plasmodium falciparum)
chain: B1 chain with K415L
B4: PfGMPS R539L (enzyme, Plasmodium falciparum)
chain: B1 chain with R539L
B5: PfGMPS_E555L (enzyme, Plasmodium falciparum)
chain: B1 chain with E555L
B6: PfGMPS D413A (enzyme, Plasmodium falciparum)
chain: B1 chain with D413A
B7: PfGMPS_N390A (enzyme, Plasmodium falciparum)
chain: B1 chain with N390A
B8: PfGMPS_K411L (enzyme, Plasmodium falciparum)
chain: B1 chain with K411L
B9: PfGMPS_K24L (enzyme, Plasmodium falciparum)
chain: B1 chain with K24L
B10: PfGMPS_T387A (enzyme, Plasmodium falciparum)
chain: B1 chain with T387A
B11: PfGMPS K376L (enzyme, Plasmodium falciparum)
chain: B1 chain with K376L
B12: PfGMPS E553L (enzyme, Plasmodium falciparum)
chain: B1 chain with E553L
B13: PfGMPS_H388A (enzyme, Plasmodium falciparum)
chain: B1 chain with H388A
B14: PfGMPS K160L (enzyme, Plasmodium falciparum)
chain: B1 chain with K160L
B15: PfGMPS_K386L (enzyme, Plasmodium falciparum)
chain: B1 chain with K386L
B16: PfGMPS R25L (enzyme, Plasmodium falciparum)
chain: B1 chain with R25L
B17: PfGMPS_D412A (enzyme, Plasmodium falciparum)
chain: B1 chain with D412A
B18: PfGMPS K547L (enzyme, Plasmodium falciparum)
chain: B1 chain with K547L
B19: PfGMPS_E213A (enzyme, Plasmodium falciparum)
chain: B1 chain with E213A

Biological target: the molecule itself
Test: SEC

| Protein | binding result |
| --- | --- |
| B1 | binds |
| B2 | binds |
| B3 | binds |
| B4 | binds |
| B5 | binds |
| B6 | binds |
| B7 | binds |
| B8 | binds |
| B9 | binds |
| B10 | binds |
| B11 | binds |
| B12 | binds |
| B13 | binds |
| B14 | binds |
| B15 | binds |
| B16 | binds |
| B17 | binds |
| B18 | binds |
| B19 | binds |
